Data: US20240092930A1 (MABWELL SHANGHAI BIOSCIENCE, published 2024)
Positions count from the first letter of the chain named.

T1: recombinant human Trop-2-his protein (ACCESSION NO.: NP_002344.2, AA 1-274) (human, UniProt P09758 27-274)
T1 construct: range 27-274; also called recombinant human Trop-2 protein; recombinant human Trop-2 extracellular domain; not shown: his tag
T1 sequence (looked up): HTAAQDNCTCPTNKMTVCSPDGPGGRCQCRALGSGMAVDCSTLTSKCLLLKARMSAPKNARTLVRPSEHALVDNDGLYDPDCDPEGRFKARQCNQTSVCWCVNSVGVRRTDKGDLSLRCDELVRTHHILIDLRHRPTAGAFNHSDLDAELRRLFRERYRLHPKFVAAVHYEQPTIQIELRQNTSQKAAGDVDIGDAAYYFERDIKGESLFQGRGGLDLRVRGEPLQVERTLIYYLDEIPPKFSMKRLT

T2: human Trop-2 on the surface of cells (CHO/Trop-2 cells; BxPC-3 cells; NCI-N87 cells) (human, UniProt P09758 27-323)
T2 sequence (looked up): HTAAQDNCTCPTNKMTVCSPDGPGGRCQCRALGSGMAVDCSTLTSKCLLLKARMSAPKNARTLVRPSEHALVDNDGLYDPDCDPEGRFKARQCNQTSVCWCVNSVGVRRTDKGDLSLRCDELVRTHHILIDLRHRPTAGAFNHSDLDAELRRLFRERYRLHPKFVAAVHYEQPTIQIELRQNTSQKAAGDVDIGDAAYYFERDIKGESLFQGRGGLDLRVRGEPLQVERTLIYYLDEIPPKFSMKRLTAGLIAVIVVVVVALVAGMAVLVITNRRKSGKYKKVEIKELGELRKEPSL

B1: chimeric antibody ch23-12 (antibody, human IgG1, V domains shown)
VH: QVQLQQPGAELVKPGASVKLSCKADGYIFTSYWMHWVKQRPGQGLEWIGEITPSDNYTSYNQKFKGKATLTVDKSSSTAYMQLSSLTSEDSAVYYCTRGHGNYVSFDYWGQGTTLTVSS
VL: DIQMTQITSSLSASLGDRVTITCRASQDISNYLNWYQQKPDGTVKLLIYYTSRLHSGVPSRFSGSGSGTDYSLTISNLEQEDIATYFCQQGYTLPPYTFGGGTKLEIK
B2: chimeric antibody ch17-1 (antibody, human IgG1, V domains shown)
VH: EVKLVESGGVLVKPGGSLKLSCAASGFTFSDSAMSWVRQTPEKRLEWVASISRGDDTYYPDSVKGRITISRDFARNILYLQMTSLRSEDTAMYYCTRDRFGFAYWGQGTLVTVSA
VL: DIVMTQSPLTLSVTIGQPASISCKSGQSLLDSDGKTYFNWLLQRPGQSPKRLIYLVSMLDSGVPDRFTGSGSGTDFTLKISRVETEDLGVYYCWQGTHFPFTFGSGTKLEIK
B3: chimeric antibody ch11-4 (antibody, human IgG1, V domains shown)
VH: QVQLQQPGAELVRPGASVNLSCKASGYTFTSYWINWVKQRPGQGLEWIGNIYPSNSYTNYNQKFKDTATLTVDKSSSTAYMQLSSPTSEDSAVYFCSSYRSDGFAYWGQGTLVTVSA
VL: DILLTQSPAILSVSPGEKVSFSCRASQNIGTSIHWYQQRTNGSPRLLIEFASESISGIPSRFSGSGSGTDFTLTINSVESEDIADYYCQQSNSWPFTFGGGTKLEIK
B4: chimeric antibody ch3-11 (antibody, human IgG1, V domains shown)
VH: QVQLQQPGAELVKPGSSVKLSCKASGYTFTSYWMYWVKQRPGQGLEWIGEINPSNGRTNYNEKFKSKATLTVDKSSSTAYMQFSSLTSEDSAVYYCTREGHNYDGSLGAMDHWGQGTSVTVSS
VL: DVVVTQTPLSLPVSFGDQVSISCRSSQSLTNSYGNTFLSWYLHKPGQSPQLLLYGISNRFSGVPDRFSGSGSGTDFTLKINTIKPEDLGMYYCFQSTHQPYTFGGGTKLEIK
B5: h11-4-14 (antibody, human IgG1, kappa, name in Kabat numbering, V domains shown)
VH: EVQLVQSGAEVKKPGASVKVSCKASGYTFTSYWINWVRQAPGQGLEWMGNIYPSNSYTNYNQKFKDRVTMTRDTSTSTVYMELSSLRSEDTAVYYCSSYRSEGFAYWGQGTLVTVSS
VL: EIVLTQSPATLSLSPGERATLSCRASQNIGTSISWYQQKPGQAPRLLIEFASESISGIPARFSGSGSGTDFTLTISSLEPEDFAVYYCQQSNSWPFTFGGGTKVEIKR
B6: h11-4-17 (antibody, human IgG1, kappa, name in Kabat numbering, V domains shown)
VH: B5 VH with E102D
VL: B5 VL with S34A
B7: h11-4-16 (antibody, human IgG1, kappa, name in Kabat numbering, V domains shown)
VH: B5 VH with E102D, G103A
VL: B5 VL
B8: h11-4-15 (antibody, human IgG1, kappa, name in Kabat numbering, V domains shown)
VH: B5 VH with E102G
VL: B5 VL
B9: h11-4-20 (antibody, human IgG1, kappa, name in Kabat numbering, V domains shown)
VH: B5 VH with E102D, G103A
VL: B5 VL with S34A
B10: h11-4-18 (antibody, human IgG1, kappa, name in Kabat numbering, V domains shown)
VH: B5 VH
VL: B5 VL with S34A
B11: h11-4-19 (antibody, human IgG1, kappa, name in Kabat numbering, V domains shown)
VH: B5 VH with E102G
VL: B5 VL with S34A

Each binder was assayed against T1, recombinant human Trop-2-his protein … (assay: BLI, antibody on AHC sensor, Trop-2-his 60 nM).
Method: (§1) 5-6 days after cell transfection, culture supernatants were purified through ProA affinity chromatography column to obtain different humanized antibodies. Affinities of the obtained antibodies were determined by an assay including capturing Fc fragments of the antibodies with anti-human IgG Fc capture (AHC) biosensors using Octet QKe system instrument from Fortebio. For the assay, each of the humanized antibodies and control antibody Sacituzumab was diluted to 4 μg/ml in PBS, and was allowed to flow through the surface of an AHC biosensor (Cat.: 18-0015, PALL) for 120 s. Recombinant human Trop-2-his protein (ACCESSION NO.: NP_002344.2, AA 1-274) was used as a mobile phase, and its concentration was 60 nM. The binding time was 100 s and the dissociation time was 300 s. When the assay was finished, data from which the response values of blank control had been deducted were fitted to a 1:1 Langmuir binding model using software, and then kinetic constants for antigen-antibody binding were calculated.
Affinities of the antibodies obtained from the combinations of mutants of murine antibody 23-12, chimeric antibody ch23-12 and control antibody Sacituzumab to recombinant human Trop-2-his protein were determined by ForteBijo (Table 5).

Kd | Binder
0.715 nM | B1

Each binder was assayed against T1, recombinant human Trop-2-his protein … (assay: ELISA, coated Trop-2-his 0.2 µg/ml).
Method: Plates were coated with recombinant human Trop-2-his protein (ACCESSION NO.: NP_002344.2, AA 1-274) at a concentration of 0.2 μg/ml overnight at 4° C. and then blocked with 5% BSA for 60 min in a constant temperature incubator at 37° C. Chimeric antibodies ch3-11, ch4-3, ch17-1, ch11-4, and ch23-12 and control antibody Sacituzumab (serial dilutions of 8 concentrations in total obtained through 3-fold serially diluting a solution with an initial concentration of 2 μg/ml) were added into the plates which were then incubated in a constant temperature incubator at 37° C. for 60 min. The plates were washed with PBST 4 times, and 1:5000 dilution of HRP-anti-human Fc (Cat.: 109-035-098, Jackson ImmunoResearch) was added into the plates for reaction for 45 min. TMB (Cat.: ME142, GalaxyBio, Beijing) substrate was added for color development for 15 min, and then 2M HCl was added to stop reaction. Absorbances at 450 nm and at 630 nm (as reference wavelength) were read, and A450 nm-630 nm values of the wells in the plates were recorded.

EC50 | Binder
0.458 nM | B1
0.328 nM | B2
0.237 nM | B3
0.315 nM | B4

Each binder was assayed against T1, recombinant human Trop-2-his protein … (assay: BLI, naked antibody on AHC sensor, Trop-2-his 60 nM, 300 s binding).
Method: Affinities of the antibodies were determined by an assay including capturing Fc fragments of the antibodies with anti-human IgG Fc capture (AHC) biosensors using Octet QKe system instrument from Fortebio.
For the assay, SN38-labeled antibodies prepared as described above: h23-12-SN38, ch4-3-SN38, ch11-4-SN38, and positive control antibody Sacituzumab-SN38, as well as naked antibodies h23-12, ch4-3, ch11-4, and positive control antibody Sacituzumab were diluted to 4 μg/ml with PBS and allowed to flow through the surface of an AHC biosensor (Cat.: 18-0015, PALL) for 120 s. Recombinant human Trop-2-his protein (ACCESSION NO.: NP_002344.2, AA 1-274) was used as a mobile phase, and its concentration was 60 nM. The binding time was 300 s and the dissociation time was 300 s. When the assay was finished, data from which the response value of blank control had been deducted were fitted to a 1:1 Langmuir binding model using software, and then kinetic constants for antigen-antibody binding were calculated.

Kd | Binder
0.176 nM | B3

The binders below were run against T2, human Trop-2 on the surface of cells … (assay: cell-based or functional assay).

Internalization percentage (%), 1 h, BxPC-3 cells, FACS | Internalization percentage (%), 3 h, BxPC-3 cells, FACS | Internalization percentage (%), 5 h, BxPC-3 cells, FACS | Binder
16.2% | 21.1% | 27.1% | B1
-2% | -7.4% | -9.38% | B3
1.12% | -5.13% | -8.48% | B4

Target: T1, recombinant human Trop-2-his protein …
Test: BLI, antibody on AHC sensor, Trop-2-his 60 nM
Remark: another data set of the same source
Method: as §1
Affinities of the antibodies obtained from the combinations of mutants of murine antibody 11-4, chimeric antibody ch11-4 and control antibody Sacituzumab to recombinant human Trop-2-his protein were determined by ForteBio (Table 11).

Kd | Binder
0.264 nM | B3
0.352 nM | B5
0.238 nM | B6
0.231 nM | B7
0.389 nM | B8
0.21 nM | B9
0.394 nM | B10
0.254 nM | B11

Target: T2, human Trop-2 on the surface of cells …
Test: cell-based or functional assay
Remark: another data set of the same source

Internalization percentage, 1 h, BXPC-3 cells, FACS | Binder
15.5% | B3

What follows are binders tested against T2, human Trop-2 on the surface of cells … (assay: FACS, CHO/Trop-2 cells).
Method: Suspensions of CHO cells recombinantly expressing human Trop-2 (CHO/Trop-2 cells) were incubated with chimeric antibodies ch3-11, ch4-3, ch17-1, ch11-4, and ch23-12 (dilutions at concentrations of 30 μg/ml and 10 μg/ml, and serial dilutions of 9 concentrations obtained through 3-fold serially diluting a solution with an initial concentration of 5 μg/ml, 11 concentrations in total) for 30 min at 37° C. Controls as follows were set: (1) Positive Control (PC): control antibody Sacituzumab; (2) Negative Control (NC): IgG1 isotype control antibody NC-IgG1. The cells were washed 3 times with PBS, and 1:100 dilution of goat anti-human IgG-FITC (Cat.: F9512, Sigma) was added into the cell which then were incubated for 30 min. Then the cells were washed 3 times with PBS again, and the Mean Fluorescence Intensity (MFI) of the cells was measured by a flow cytometer (model B49007AD, SNAW31211, BECKMAN COULTER) to detect binding ability of the chimeric antibodies to human Trop-2 on the surface of CHO cells.

EC50 | Binder
2.75 nM | B1
2.92 nM | B2
1.15 nM | B3
0.993 nM | B4
